B2: human C5a receptor (C5aR) (receptor)
chain: MDSFNYTTPDYGHYDDKDTLDLNTPVDKTSNTLRVPDILALVIFAVVFLVGVLGNALVVWVTAFEAKRTINAIWFLNLAVADFLSCLALPILFTSIVQHHHWPFGGAACSILPSLILLNMYASILLLATISADRFLLVFKPIWCQNFRGAGLAWIACAVAWGLALLLTIPSFLYRVVREEYFPPKVLCGVDYSHDKRRERAVAIVRLVLGFLWPLLTLTICYTFILLRTWSRRATRSTKTLKVVVAVVASFFIFWLPYQVTGIMMSFLEPSSPTFLLLKKLDSLCVSFAYINCCINPIIYVVAGQGFQGRLRKSLPSLLRNVLTEESVVRESKSFTRSTVDTMAQKTQAV
notes: human C5a receptor (C5aR), expressed on transfected RBL-2H3 or CHO cells; also called hC5aR; RBL-C5aR; source: RBL-2H3 or CHO cells, transfected by electroporation, on cells

Legend:
[1] = molecular target: B2; test: flow cytometry on cells; competition: RBL cells transfected with human C5aR pre-treated with unlabelled CHIPS or human C5a, then 210 nM FITC-rCHIPS(28-149); cell-associated fluorescence; conditions: one partner purified
[2] = molecular target: T1, FITC-labelled recombinant CHIPS_(28–149) (Staphylococcus aureus N315 (MRSA), UniProt A6QIG7 28-149, FITC label (site not stated)); test: flow cytometry on cells; kinetics: 300 nM FITC-CHIPS(28-149) added to C5aR-transfected RBL cells, dissociation started with 14 μM unlabelled CHIPS(28-149); Kd from kobs and koff, five experiments; conditions: one partner purified
T1 construct: three N-terminal residues, GlyAlaMet, left from the vector after TEV cleavage; The discussion once calls the labelled protein of the serum assay rCHIPS_(26–141); results and methods say 28-149; also called FITC-rCHIPS_(28–149); FITC-CHIPS_(28–149); source: E. coli BL21 (DE3), purified (glutathione sepharose 4B, TEV cleavage, Mono S), FITC-labelled; not shown: GST, N-terminal, cleaved

[3] = molecular target: T2, recombinant chemotaxis inhibitory protein of Staphylococcus aureus, residues 28-149 (rCHIPS_(28–149)) (Staphylococcus aureus N315 (MRSA), UniProt A6QIG7 28-149); test: NMR titration; 1H-15N HSQC of 0.7 mM 15N-CHIPS(28-149), unlabelled lyophilized ligand added to ligand:CHIPS ratios 0, 1:2, 3:4, 1:1, 5:4; 25 °C, 100 mM phosphate pH 7.0, 200 mM NaCl, 1 mM DTT, 0.5 mM EDTA; Kd from fast-exchange shift curves, averaged over residues; conditions: both partners purified
T2 construct: three N-terminal residues, GlyAlaMet, left from the vector after TEV cleavage; Uniformly 15N-labelled (isotope only) in the NMR titrations; unlabelled in ITC and in the cell assays; also called unlabelled CHIPS; ^15N-labelled CHIPS_(28–149); source: E. coli BL21 (DE3), purified (glutathione sepharose 4B, TEV cleavage, Mono S); not shown: GST, N-terminal, cleaved

[4] = molecular target: T2, recombinant chemotaxis inhibitory …; test: ITC; CHIPS(28-149) (0.2 mM) titrated with the peptides; non-linear regression; data not shown; conditions: both partners purified

B1: recombinant human C5a protein (rh-C5a) (ligand)
chain: TLQKKIEEIAAKYKHSVVKKCCYDGACVNNDETCEQRAARISLGPRCIKAFTECCVVASQLRANISHKDMQLGR
notes: source: expressed and purified according to a previously described protocol (Paczkowski et al., 1999)
IC50 [1]: ~0.25 µM

B2
Kd [2]: 0.00722 ± 0.00666 µM

B3: human C5aR peptide of the N-terminal extracellular region M1-D37 with additional -APAPAC on the C-terminus (hC5aR_(1–37)) (peptide)
peptide: MDSFNYTTPDYGHYDDKDTLDLNTPVDKTSNTLRVPDAPAPAC
notes: human C5a receptor, N-terminal extracellular region, residues M1-D37; also called human C5aR_(1–37) peptide; source: gift from Dr M. Barker, Division of Genomic Medicine, Sheffield
Kd [3]: 8.25 µM | Ka [4]: 25000 M⁻¹ | Kd [4]: ~40 µM | stoichiometry N [4]: 1.4 ± 0.8

Source: article PMC2646901, “Characterisation of receptor binding by the chemotaxis inhibitory protein of Staphylococcus aureus and the effects of the host immune response” (Molecular Immunology, 2007)
